According to patent publication US20150065376A1, “EXPRESSION CONSTRUCTS ENCODING G PROTEIN COUPLED RECEPTORS AND METHODS OF USE THEREOF” (priority 2013, published 2015):
One block for each substance: values may come before it.

Experiments:
[1] = target: Cxcr4b-Kate2 fusion protein (zebrafish Sdf1-signaling sensor) (zebrafish); test: cell-based or functional assay
[2] = target: Cxcr7a (zebrafish CXCR7 ortholog) (zebrafish); test: cell-based or functional assay
[3] = target: Cxcr7b (zebrafish CXCR7 ortholog) (zebrafish); test: cell-based or functional assay
[4] = tested on: sdf1a; test: linearity of the Sdf1-signaling sensor, sdf1a morpholino injection; type: in vivo, zebrafish; details: increasing amounts of morpholino injected, embryos imaged at 36 hpf, FIG. 3C
Excerpt: Using ImageJ (NIH), a mask was applied to the GFP channel with a threshold to selectively mark the cell membranes of the cells that comprise the primordium. All values in the GFP and Kate2 channels outside of the mask were discarded and the photon counts from the Kate2 channel were divided by the photon counts from the GFP channel for each voxel to yield a Z-stack in which each value-containing voxel represents the ratio of Kate2 fluorescence to GFP fluorescence on the cell membrane. A custom ImageJ (NIH) macro language script was written in order to automate this analysis. The data was then averaged across the dorsal-ventral axis and placed in 1-micron bins in order to yield 100 data points for still images or 80 data points for time-lapse images that correspond to the first 100 μm or the first 80 μm, respectively, from the front tip of the primordium. […]
Tg(cxcr4b:cxcr4b-kate2-IRES-memGFP) embryos were injected alternately with 0, 0.5, 1.0 and 1.5 nl of 0.025 mM or 0.1 mM sdf1a morpholino solution (Doitsidou et al., 2002). […] Image collection and gradient quantification were performed as described above. The shift of the Sdf1-signaling gradient was determined by fitting the average ratios to a second order polynomial using the least squares regression in ImageJ (NIH) and extracting the y-intercept. […]

[5] = target: Cxcr4b; details: value used for graph of free Cxcr4b versus free Sdf1, FIG. S3B; read-out: dissociation constant; cited from earlier work
[6] = target: T1, human CXCR4 (Homo sapiens, UniProt P61073); test: human Sdf1-signaling sensor in Flp-In T-REx 293 cell line (CXCR4-Kate2 internalization); type: cell-based; details: Flp-In T-REx 293 cells, tetracycline-induced sensor, within 40 minutes, not in vehicle treated controls
T1 construct: Kate2 (TagRFP2, RFP variant); host or cells: Flp-In T-REx 293 (HEK 293), tetracycline-inducible, cell line number 4
T1 sequence (P61073 whole entry): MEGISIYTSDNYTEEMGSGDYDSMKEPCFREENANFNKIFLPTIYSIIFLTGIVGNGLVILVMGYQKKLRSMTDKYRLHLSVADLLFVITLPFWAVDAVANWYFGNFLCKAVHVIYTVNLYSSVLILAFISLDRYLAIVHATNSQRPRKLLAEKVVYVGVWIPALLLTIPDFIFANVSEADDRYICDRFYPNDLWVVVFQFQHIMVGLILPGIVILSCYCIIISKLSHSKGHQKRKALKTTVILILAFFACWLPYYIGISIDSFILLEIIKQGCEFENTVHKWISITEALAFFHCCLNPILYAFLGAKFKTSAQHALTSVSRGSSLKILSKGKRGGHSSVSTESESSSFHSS
Excerpt: In order to test whether the human version of the Sdf1-signaling sensor responds to human SDF1 in a similar fashion to that of the fish version of the Sdf1-signaling sensor, the present inventors generated a Flp-In™ T-REx™ 293 cell line that expresses human CXCR4 fused to the RFP variant Kate2 followed by an IRES and a membrane-tethered GFP from a tetracycline-inducible promoter. Because the flippin technology allows one to generate a single copy transgene in a specific genomic location of HEK 293 cells, expression levels from the human Sdf1-signaling sensor are fairly uniform (FIGS. S4A and C).
Human CXCR4-Kate2-IRES-GFP-CaaX was inserted into the FRT sites in the genome of the Flp-In™ T-REx™ cell line using hygromycin selection (Invitrogen). Five different cell lines were established and cell line number 4 was used to characterize the activity of recombinant human SDF1 on the human Sdf1-signaling sensor. Expression of the human Sdf1-signaling sensor was induced using tetracycline and cells were imaged 24 hours after induction of expression using a Leica SP5 II confocal microscope.

average FmemRed/FmemGreen ratio of the Sdf1-signaling sensor in the absence of Sdf1a protein [1]: 2.6
average FmemRed/FmemGreen ratio of the Sdf1-signaling sensor upon global Sdf1a over-expression [1]: 0.2
mean FmemRed/FmemGreen at the leading edge of wild-type primordia, 36 hpf [1]: < 0.6
mean FmemRed/FmemGreen in the rear of wild-type primordia, 36 hpf [1]: 2.3
reduction in the local concentration of signaling competent Sdf1a in the rear of the primordium [2]: 86%
reduction in the steepness of the Sdf1-signaling gradient across the primordium in the absence of cxcr7a activity [2]: 31%
reduction in the local concentration of signaling competent Sdf1a in the rear of the primordium [3]: 86%
reduction in the steepness of the Sdf1-signaling gradient across the primordium in the absence of cxcr7b activity [3]: 40%
Substance: Sdf1a protein (zebrafish chemokine Sdf1a) (ligand)

Substance: sdf1a morpholino: translation-blocking morpholino against sdf1a, SEQ ID NO: 69 (Doitsidou et al., 2002) (ATCACTTTGAGATCCATGTTTGCA; all phosphorodiamidate morpholino (PMO))
shift of FmemRed/FmemGreen ratios across the primordium [4]: progressively shifts the FmemRed/FmemGreen ratios across the primordium to higher values

Substance: Sdf1: chemokine Sdf1, free ligand binding reversibly to Cxcr4b
Kd [5]: 4 nM

Substance: Sdf1a-GFP (Sdf1a fused to green fluorescent protein) (ligand)
fraction of total Sdf1a-GFP sequestered in the rear of the primordium [2]: 1%
fraction of total Sdf1a-GFP sequestered in the rear of the primordium [3]: 1%
reduction of Sdf1a-GFP protein levels on the stripe outside the primordium upon Cxcr7b over-expression [3]: 29%

internalization of CXCR4-Kate2 / activation of the human Sdf1-signaling sensor [6]: induces internalization of CXCR4-Kate2
Substance: recombinant human SDF1: recombinant human chemokine SDF1, ligand of CXCR4
internalization of CXCR4-Kate2 / activation of the human Sdf1-signaling sensor ([6]; listed as Recombinant human SDF1): activates the human version of the Sdf1-signaling sensor
